Results on 18 variants are retold here after publication PMC3553015 (2013).

B1: biotin-labeled AP2µ [modified: biotin (incorporated with Transcend Biotinylated tRNA during translation); biotin (incorporated with Transcend Biotinylated tRNA during translation)] [murine] / GST-21-mer of CD79a centered on the membrane … (parent complex)
chain 1: MIGGLFIYNHKGEVLISRVYRDDIGRNAVDAFRVNVIHARQQVRSPVTNIARTSFFHVKRSNIWLAAVTKQNVNAAMVFEFLYKMCDVMAAYFGKISEENIKNNFVLIYELLDEILDFGYPQNSETGALKTFITQQGIKSQHQTKEEQSQITSQVTGQIGWRREGIKYRRNELFLDVLESVNLLMSPQGQVLSAHVSGRVVMKSYLSGMPECKFGMNDKIVIEKQGKGTADETSKSGKQSIAIDDCTFHQCVRLSKFDSERSISFIPPDGEFELMRYRTTKDIILPFRVIPLVREVGRTKLEVKVVIKSNFKPSLLAQKIEVRIPTPLNTSGVQVICMKGKAKYKASENAIVWKIKRMAGMKESQISAEIELLPTNDKKKWARPPISMNFEVPFAPSGLKVRYLKVFEPKLNYSDHDVIKWVRYIGRSGIYETRC
chain 2: MPDDYEDENLYEGLNLDDCSM
B2: biotin-labeled AP2µ [modified: biotin (incorporated with Transcend Biotinylated tRNA during translation); biotin (incorporated with Transcend Biotinylated tRNA during translation)] [murine] / GST-21-mer of CD79a centered on Y193 [murine] (parent complex)
chain 1: B1 chain 1
chain 2: EGLNLDDCSMYEDISRGLQGT
B3: biotin-labeled AP2µ [modified: biotin (incorporated with Transcend Biotinylated tRNA during translation); biotin (incorporated with Transcend Biotinylated tRNA during translation)] [murine] / GST-CD79a cytoplasmic domain [murine] (parent complex)
chain 1: B1 chain 1
chain 2: RKRWQNEKFGVDMPDDYEDENLYEGLNLDDCSMYEDISRGLQGTYQDVGNLHIGDAQLEKP

Variants of B1 are the subject of the first assay. Kind of assay: in vitro binding of AP2µ-btn to bead-captured GST-21-mer; parent: 81; read off a plot.
In the case of chain 2 MPDDYEDENLAEGLNLDDCSM [chain 2 Y11A], the screen value was ~41 % of full-length CD79a. Same read-out and setting: with chain 2 MPDDYEDENLEEGLNLDDCSM [chain 2 Y11E] the figure was ~42 % of full-length CD79a.

A further assay covers variants of B2. As to the kind of experiment: in vitro binding of AP2µ-btn to bead-captured GST-21-mer; parent: 65; read off a plot.
Turning to chain 2 EGLNLDDCSMAEDISRGLQGT [chain 2 Y11A], the screen value was ~50 % of full-length CD79a. Still for that read-out and setting: with chain 2 EGLNLDDCSMEEDISRGLQGT [chain 2 Y11E] the figure was ~53 % of full-length CD79a.

The variants in the next assay derive from B3. Kind of assay: in vitro binding of AP2µ-btn to bead-captured GST fusion protein; parent: 100; read off a plot.
In the case of chain 2 RKRWQNEKFGVDMPDDYEDENLEEGLNLDDCSMEEDISRGLQGTEQDVGNLHIGDAQLEKP [chain 2 Y23E, chain 2 Y34E, chain 2 Y45E], the percent of parent is ~24 % of CD79a. Regarding chain 2 RKRWQNEKFGVDMPDDYEDENLEEGLNLDDCSMYEDISRGLQGTYQDVGNLHIGDAQLEKP [chain 2 Y23E], the percent of parent is ~49 % of CD79a. With chain 2 RKRWQNEKFGVDMPDDYEDENLAEGLNLDDCSMYEDISRGLQGTYQDVGNLHIGDAQLEKP [chain 2 Y23A], the percent of parent is ~77 % of CD79a. As for chain 2 RKRWQNEKFGVDMPDDYEDENLYEGLNLDDCSMYEDISRGLQGTEQDVGNLHIGDAQLEKP [chain 2 Y45E], the percent of parent is ~102 % of CD79a. On to chain 2 RKRWQNEKFGVDMPDDYEDENLYEGLNLDDCSMYEDISRGLQGTAQDVGNLHIGDAQLEKP [chain 2 Y45A], for which the percent of parent is ~105 % of CD79a. As to chain 2 RKRWQNEKFGVDMPDDYEDENLEEGLNLDDCSMYEDISRGLQGTEQDVGNLHIGDAQLEKP [chain 2 Y23E, chain 2 Y45E], the percent of parent was ~41 % of CD79a. With chain 2 RKRWQNEKFGVDMPDDYEDENLYEGLNLDDCSMAEDISRGLQGTAQDVGNLHIGDAQLEKP [chain 2 Y34A, chain 2 Y45A], the percent of parent was ~104 % of CD79a. For the variant chain 2 RKRWQNEKFGVDMPDDYEDENLAEGLNLDDCSMAEDISRGLQGTAQDVGNLHIGDAQLEKP [chain 2 Y23A, chain 2 Y34A, chain 2 Y45A], the percent of parent was ~53 % of CD79a.

For chain 2 RKRWQNEKFGVDMPDDYEDENLYEGLNLDDCSMEEDISRGLQGTEQDVGNLHIGDAQLEKP [chain 2 Y34E, chain 2 Y45E], the percent of parent was ~83 % of CD79a.

Turning to chain 2 RKRWQNEKFGVDMPDDYEDENLYEGLNLDDCSMEEDISRGLQGTYQDVGNLHIGDAQLEKP [chain 2 Y34E], the percent of parent is ~100 % of CD79a. Take chain 2 RKRWQNEKFGVDMPDDYEDENLYEGLNLDDCSMAEDISRGLQGTYQDVGNLHIGDAQLEKP [chain 2 Y34A]: the percent of parent is ~99 % of CD79a. For chain 2 RKRWQNEKFGVDMPDDYEDENLEEGLNLDDCSMEEDISRGLQGTYQDVGNLHIGDAQLEKP [chain 2 Y23E, chain 2 Y34E], the percent of parent was ~58 % of CD79a. Consider chain 2 RKRWQNEKFGVDMPDDYEDENLAEGLNLDDCSMYEDISRGLQGTAQDVGNLHIGDAQLEKP [chain 2 Y23A, chain 2 Y45A], for which the percent of parent is ~50 % of CD79a.

For chain 2 RKRWQNEKFGVDMPDDYEDENLAEGLNLDDCSMAEDISRGLQGTYQDVGNLHIGDAQLEKP [chain 2 Y23A, chain 2 Y34A], the percent of parent was ~78 % of CD79a.
